The Human Domainome abundance scans (Beltran et al. 2025)

B1: Intersectin-1, residues 909 to 971; numbered along this chain, Q15811 (parent)
chain: QGEKVEGLQAQALYPWRAKKDNHLNFNKNDVITVLEQQDMWWFGEVQGQKGWFPKSYVKLISG
B2: Chromodomain-helicase-DNA-binding protein 4, residues 444 to 496; numbered along this chain, Q14839 (parent)
chain: EDDHHMEFCRVCKDGGELLCCDTCPSSYHIHCLNPPLPEIPNGEWLCPRCTCP

Variants of: B1
Test: abundance fitness (aPCA) (normalised: wild type 0, dead -1); higher = more abundant; growth selection in yeast, the domain comes from the species named
Conditions: Homo sapiens

Abundance fitness: each site, then its substitutions
S62: C -0.089; L -0.084; T -0.209; D -0.041; P -0.21; F -0.63; I -0.165; Y -0.626; H -0.362; G -0.129; W -0.075; K -0.158; R -0.101; Q 0.067; N -0.151; E -0.398; A 0.062; V -0.253
L60: V -0.06; Q 0.049; D -0.22; N -0.254; R -0.119; M -0.058; P -0.152; I -0.258; C 0.029; G -0.18; F -0.536; S -0.18; K -0.1; T -0.162
I61: L 0.002; M -0.383; H -0.438; E -0.088; F 0.08; T -0.137; V 0.095; G -0.207; A -0.073; Y -0.223; K -0.079; R -0.155; S -0.301; D -0.159; W -0.274
K59: Y -0.378; V -0.234; W -0.747; T -0.31
G63: T 0.032; C 0.026; R -0.029; M 0.011; I -0.151; L -0.077; Q -0.248; A -0.058; S -0.278; W -0.276; P -0.01; D 0.07

Variants of: B2
Test: as above
Conditions: Homo sapiens

Abundance fitness of substitutions, site by site:
D3: C 0.27; S 0.105; R 0.06; L 0.342; G -0.292; H 0.1; T 0.277; Q 0.221; V -0.174; E -0.187; Y 0.319; A -0.211; W 0.201; I 0.393; P -0.174; K 0.304; M 0.397
D2: W -0.334; E 0.188; L 0.163; F 0.463; G 0.26; Y 0.016; V 0.217; A 0.05; C -0.425; N 0.091; S 0.202; R 0.033; H -0.036; M 0.278; K 0.378
E1: Y -0.175; G -0.289; N 0.354; I -0.265; L -0.235; F -0.306; V -0.059; A -0.531; W -0.898; T -0.221; P -0.436; S -0.507; M 0.156; D -0.693; R -0.625; Q -0.486
M6: C -0.207; N -0.055; F -0.204; I -0.021; A 0.023; T 0.028; G -0.056; Q -0.508; L -0.665; S -0.147; H -0.713; D 0.023; R -0.477; W -0.231
H5: R 0.096; G 0.106; T 0.019; E 0.116; K 0.199; M -0.12; F 0.219; N -0.006; W 0.02; L -0.305; I 0.165; C 0.068; P -0.11; Q 0.074; Y 0.097; V -0.135; A 0.092; S -0.129
E7: A -0.366; F -0.002; D -0.048; G -0.239; H -0.22; C -0.15
H4: E -0.126; F 0.301; R -0.04; N 0.197; L -0.162; C 0.032; K 0.119; T -0.004; Y 0.078; A -0.14; Q -0.058; S -0.409; P -0.294; W -0.126; I 0.025; D 0.125; V -0.008; M 0.107
